# Experimental data as given in patent US20190276551A1 (UNIVERSITY MEDICAL CENTER HAMBURG EPPENDORF, published 2019).
# Target: T1, human CD38 on cells (human, UniProt P28907 1-300)
# T1 construct: also called native CD38; CD38 on LP-1 myeloma cells, CD38-transfected NIH-3T3 cells, blood leukocytes, CD38-transfected DC27.10 cells
# Test: flow cytometry on human blood, bound VHH detected with FITC anti-c-myc 9E10, MFI of CD3-negative lymphocytes
# Experimental: 50 μl samples of human blood were incubated with serially titrated, purified monovalent Nanobodies for 30 min at RT. Cells were washed twice and bound Nbs were detected with FITC-conjugated anti-c-myc (9E10). T cells were stained with APC-conjugated anti-CD3. Erythrocytes were lysed and cells were analyzed by flow cytometry. Gating was performed on lymphocytes and CD3-negative cells.
# Next, purified monovalent anti-CD38 VHH were analysed for binding to native CD38 on the cell surface of peripheral blood leukocytes (PBMCs) by flow cytometry. […] After washing the cells and lysis of erythrocytes by lysis buffer, binding was examined by flow cytometry. […] As positive control, a FITC-labelled monoclonal antibody against CD38 (anti-human CD38-FITC, IA10, BD Biosciences) was used. The lymphocytes were defined on forward and side scattered light. Using the Flowio software the mean fluorescence intensity (MFI) of the CD3-negative cell population was calculated.
Binder,EC50 (read off the curve) [nM],binding result
"MU1053 (VHH, also called L-15.3; I-15.3a) VHH: DVQLQESGGGLVQAGGSLRLSCTGSGRTFRNYPMAWFRQAPGKEREFVAGITWVGASTLYADFAKGRFTISRDNAKNTVYLQMNSLKPEDTAVYSCAAGRGIVAGRIPAEYADWGQGTQVTVSS",~0.1,
"MU725 (VHH, His6-Myc-tagged monovalent VHH; also called family 22) VHH: DVQLQESGGGLVQAGGSLRLSCAASGFTFDDYVIGWFRQAPGKEREGVSSISNNNSTYYADSVKGRFTIASDNAKNTVYLQMNSLKPEDTAVYYCAADVTLNPFTGWNTRSGPMYRYEYDYWGQGTQVTVSS",,binds
"MU737 (VHH, His6-Myc-tagged monovalent VHH; also called s-14.1c; family 9) VHH: DVQLQASGGGLVQAGGSLRLSCAGSGRSFSSYAMGWFRQAPGKAREIVATITRSGGSTNYAVPVKGRFTISRDNAKNTVYLQMSSLKPEDTAVYYCAADRFAVASGTHDLDYWGQGTQVTVSS",,binds
